The numbers were not newly measured in publication PMC8622359, which cites them from elsewhere.

For orientation: Kd means the equilibrium constant for the complex coming apart.

The target of data set [1] is SAC3B (Arabidopsis thaliana) (UniProt F4JAU2). The experiment in a line: given as Ka.
Data set [2] shares this target. The experiment in a line: given as Ka. This is another data set of the same source.
For data set [3], the target named is AtRAD4 (Arabidopsis thaliana).
The target in data set [4] is AtRAD4 (Arabidopsis thaliana). The source holds these as a separate data set.
The target in data set [5] is ScSFI1 (R19) (Saccharomyces cerevisiae). The experiment in a line: given as Ka.
Data set [6] deals with SAC3 (Saccharomyces cerevisiae) (UniProt P46674).
The target in data set [7] is ScSFI1 (R18) (Saccharomyces cerevisiae). As to the kind of experiment: given as Ka.
Data set [8] concerns the target KAR1 (Saccharomyces cerevisiae) (UniProt P11927). The experiment in a line: given as Ka.
The target of data set [9] is SAC3 (Saccharomyces cerevisiae) (UniProt P46674). The source holds these as a separate data set.
The target of data set [10] is ScSFI1 (R18) (Saccharomyces cerevisiae). As to the kind of experiment: given as Ka. The source holds these as a separate data set.
In data set [11] the target is SAC3 (Saccharomyces cerevisiae). The experiment in a line: given as Ka.
For data set [12], the target named is ScSFI1 (R19) (Saccharomyces cerevisiae). As to the kind of experiment: given as Ka. The source holds these as a separate data set.
In data set [13] the target is KAR1 (Saccharomyces cerevisiae) (UniProt P11927). The experiment in a line: given as Ka. The source holds these as a separate data set.
Data set [14] deals with SAC3 (Saccharomyces cerevisiae) (UniProt P46674). As to the kind of experiment: given as Ka.
The target of data set [15] is HsSFI1 (R18) (Homo sapiens). The experiment in a line: given as Ka.
Data set [16] addresses Transducin β (Homo sapiens) (UniProt P62873). The experiment in a line: given as Ka.
Data set [17] concerns the target HsSFI1 (R18) (Homo sapiens). The experiment in a line: given as Ka. This is another data set of the same source.
Data set [18] concerns the target HsSFI1 (R17) (Homo sapiens). The experiment in a line: given as Ka.
The target of data set [19] is PRP40A (Homo sapiens) (UniProt O75400). The experiment in a line: given as Ka.
For data set [20], the target named is HsSFI1 (R17) (Homo sapiens). The experiment in a line: given as Ka. The source holds these as a separate data set.
Data set [21] addresses XPC (Homo sapiens). As to the kind of experiment: given as Ka.
Data set [22] addresses XPC (Homo sapiens). The experiment in a line: given as Ka. The source holds these as a separate data set.

Like-named read-outs stand apart in the source and are kept apart here.

Sequence of AtCEN2 (O23184 whole entry): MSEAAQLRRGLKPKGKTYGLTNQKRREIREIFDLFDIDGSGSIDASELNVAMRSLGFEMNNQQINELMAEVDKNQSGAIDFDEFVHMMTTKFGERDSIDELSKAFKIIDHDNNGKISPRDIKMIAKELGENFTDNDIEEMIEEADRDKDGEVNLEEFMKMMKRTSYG
Sequence of HsCEN2 (P41208 2-172): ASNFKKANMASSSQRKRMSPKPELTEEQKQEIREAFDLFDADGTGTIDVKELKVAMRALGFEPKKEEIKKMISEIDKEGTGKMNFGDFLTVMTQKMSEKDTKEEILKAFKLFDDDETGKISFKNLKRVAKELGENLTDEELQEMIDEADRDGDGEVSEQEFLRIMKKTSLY
Sequence of CDC31 (P06704 whole entry): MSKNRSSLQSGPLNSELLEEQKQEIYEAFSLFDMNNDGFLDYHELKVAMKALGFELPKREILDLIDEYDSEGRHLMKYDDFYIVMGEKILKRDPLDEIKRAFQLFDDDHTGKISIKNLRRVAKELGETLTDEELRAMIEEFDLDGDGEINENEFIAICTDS
Sequence of HsCEN1 (Q12798 whole entry): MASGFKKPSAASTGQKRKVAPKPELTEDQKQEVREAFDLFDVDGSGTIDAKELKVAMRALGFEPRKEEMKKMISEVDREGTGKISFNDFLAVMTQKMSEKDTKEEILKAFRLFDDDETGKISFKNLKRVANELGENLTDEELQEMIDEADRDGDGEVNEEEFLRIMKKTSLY
Sequence of HsSFI1 (R17) (Homo sapiens) (A8K8P3 641-660): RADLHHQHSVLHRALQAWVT
Sequence of HsSFI1 (R18) (Homo sapiens) (A8K8P3 670-692): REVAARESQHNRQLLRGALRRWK
Sequence of ScSFI1 (R19) (Saccharomyces cerevisiae) (Q12369 710-729): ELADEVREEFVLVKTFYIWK
Sequence of ScSFI1 (R18) (Saccharomyces cerevisiae) (Q12369 680-699): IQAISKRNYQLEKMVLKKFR
Sequence of SAC3B (Arabidopsis thaliana) (F4JAU2 1050-1075): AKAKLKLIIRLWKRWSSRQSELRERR
Sequence of PRP40A (Homo sapiens) (O75400 524-556): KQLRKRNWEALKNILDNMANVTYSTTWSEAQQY

Consider AtCEN2 (from UniProt O23184), for which the Kd in [1] was 2440 nM; in data set [2], 667 nM; in data set [3], 8000 nM; in data set [4] it was 54 nM.
In the case of CDC31 (from UniProt P06704), the Kd in [5] is 28.6 nM; in [6] it was 45 nM; in data set [7], 4170 nM; in data set [8], 2270 nM; in data set [9], 677 nM; in data set [10], 100 nM. Further, the Kd was 45.5 nM in data set [11], 5260 nM in data set [12], 43.5 nM in data set [13] and 667 nM in data set [14].
Regarding HsCEN1 (from UniProt Q12798), the dissociation constant Kd in data set [15] was 333000 nM; in [16] it was 5880 nM; in data set [17], 831 nM.
For the substance HsCEN2 (from UniProt P41208), the Kd in data set [18] was 4000 nM; in [19] it was 278 nM; in data set [20], 154 nM; in data set [21], 5.88 nM; in [22], 125 nM.
